T1: Alcohol dehydrogenase (UniProt P00330 1-348)
T1 sequence (looked up): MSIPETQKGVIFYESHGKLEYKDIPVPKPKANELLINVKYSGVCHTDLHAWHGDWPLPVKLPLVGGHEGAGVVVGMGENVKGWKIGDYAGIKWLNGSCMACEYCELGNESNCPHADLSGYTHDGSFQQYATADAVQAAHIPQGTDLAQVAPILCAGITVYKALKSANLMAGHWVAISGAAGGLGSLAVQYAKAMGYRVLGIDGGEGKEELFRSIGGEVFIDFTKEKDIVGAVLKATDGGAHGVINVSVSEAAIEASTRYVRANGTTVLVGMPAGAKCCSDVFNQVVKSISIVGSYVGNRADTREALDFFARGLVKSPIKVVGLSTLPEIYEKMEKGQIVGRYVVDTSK


What was measured:
αB-crystallin = αB-crystallin (UniProt P02511); experiment: SEC-MALS of homo-oligomer mass; TEM; details: reference: wild type; sites S59
Luciferase = Luciferase (UniProt P08659 1-550 = luciferase); experiment: cell-based or functional assay
Chain of Luciferase (P08659 whole entry): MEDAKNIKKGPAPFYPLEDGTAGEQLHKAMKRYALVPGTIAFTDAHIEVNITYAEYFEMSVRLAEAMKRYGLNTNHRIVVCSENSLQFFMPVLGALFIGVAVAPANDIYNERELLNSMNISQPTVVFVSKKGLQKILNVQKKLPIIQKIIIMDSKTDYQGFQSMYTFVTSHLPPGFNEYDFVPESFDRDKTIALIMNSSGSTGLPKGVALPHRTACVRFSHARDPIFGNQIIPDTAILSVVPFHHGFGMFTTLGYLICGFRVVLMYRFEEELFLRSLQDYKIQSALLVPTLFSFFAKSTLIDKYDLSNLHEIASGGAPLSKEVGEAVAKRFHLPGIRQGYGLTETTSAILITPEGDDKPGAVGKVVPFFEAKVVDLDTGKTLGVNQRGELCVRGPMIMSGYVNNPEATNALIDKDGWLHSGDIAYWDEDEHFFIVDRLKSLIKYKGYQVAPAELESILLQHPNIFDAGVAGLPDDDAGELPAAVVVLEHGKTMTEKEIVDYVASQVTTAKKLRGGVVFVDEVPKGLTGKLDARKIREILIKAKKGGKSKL

Alcohol dehydrogenase = target: T1, Alcohol dehydrogenase; experiment: cell-based or functional assay
Lysozyme = Lysozyme (UniProt P00698 19-147); experiment: cell-based or functional assay
Chain of Lysozyme (P00698 19-147): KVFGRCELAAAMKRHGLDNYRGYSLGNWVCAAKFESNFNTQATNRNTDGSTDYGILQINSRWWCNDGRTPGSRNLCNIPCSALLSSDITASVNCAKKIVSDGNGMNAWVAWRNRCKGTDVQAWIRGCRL

[1] = target: the molecule itself; experiment: SEC-MALS; HPLC coupled with MALS; proteins (0.15 mg in 0.05 mL) incubated at 37°C for 1 hour before analysis; self-association into oligomers
[2] = target: the molecule itself; experiment: negative-stain transmission electron microscopy; 0.05 mg/mL on glow-discharged carbon grids, 2% uranyl acetate; oligomers of the chaperone protein alone

Molecule	other: average oligomeric mass (αB-crystallin)	EC50 of suppression of luciferase (0.5 μM) aggregation, light scattering at 360 nm, 90 min, PBS, 37°C (Luciferase) [nM]	EC50 of suppression of ADH (2.5 μM) aggregation, light scattering at 360 nm, 90 min, PBS + 50 mM EDTA, 37°C (Alcohol dehydrogenase) [nM]	protection against DTT-induced lysozyme (10 μM) aggregation, 2.5 μM chaperone, PBS, 2 mM DTT, 37°C, 6 hours (Lysozyme) [%]	binding result [1]	chaperone efficiency against ADH (2.5 μM) aggregation relative to αB-S59D, light scattering at 360 nm, 90 min, PBS + 50 mM EDTA, 37°C (Alcohol dehydrogenase) [fold]	binding result [2]
αB-crystallin (from UniProt P02511) ΔS59	same; reference 579	–	–	–	–	–	–
αB-crystallin (from UniProt P02511) S59D	weaker; reference 579	–	–	–	–	–	–
αB-crystallin ΔS59 (deletion of Serine 59) (natural protein, human, UniProt P02511 1-175, looked up, αB-crystallin, human, with Serine 59 deleted; Made by site-directed mutagenesis; also called αB-ΔS59; source: E. coli BL21(DE3)pLysS, purified (Q-Sepharose, Superdex and Superose 6 size exclusion, ammonium sulphate)) MDIAIHHPWIRRPFFPFHSPSRLFDQFFGEHLLESDLFPTSTSLSPFYLRPPSFLRAPWFDTGLSEMRLEKDRFSVNLDVKHFSPEELKVKVLGDVIEVHGKHEERQDEHGFISREFHRKYRIPADVDPLTITSSLSSDGVLTVNGPRKQVSGPERTIPITREEKPAVTAAPKK	–	8300	1200	60	binds	–	–
αB-crystallin with residues 54–61 deleted (natural protein, human, UniProt P02511 1-175, looked up, αB-crystallin, human, with residues 54–61 deleted; also called αB-Δ54–61; αBΔ54–61) MDIAIHHPWIRRPFFPFHSPSRLFDQFFGEHLLESDLFPTSTSLSPFYLRPPSDTGLSEMRLEKDRFSVNLDVKHFSPEELKVKVLGDVIEVHGKHEERQDEHGFISREFHRKYRIPADVDPLTITSSLSSDGVLTVNGPRKQVSGPERTIPITREEKPAVTAAPKK	–	1200	–	> 95	–	1.6	binds
wild-type αB-crystallin (natural protein, human, UniProt P02511 1-175, looked up, αB-crystallin, human, wild type; forms large polydisperse oligomers; no tag is mentioned; also called αB-WT; WT-αB; source: E. coli BL21(DE3)pLysS, purified (Q-Sepharose, Superdex and Superose 6 size exclusion, ammonium sulphate)) MDIAIHHPWIRRPFFPFHSPSRLFDQFFGEHLLESDLFPTSTSLSPFYLRPPSFLRAPSWFDTGLSEMRLEKDRFSVNLDVKHFSPEELKVKVLGDVIEVHGKHEERQDEHGFISREFHRKYRIPADVDPLTITSSLSSDGVLTVNGPRKQVSGPERTIPITREEKPAVTAAPKK	–	4300	1000	~52	binds	–	–
αB-crystallin S59D (phosphomimetic mutant) (natural protein, human, UniProt P02511 1-175, looked up, αB-crystallin, human, with the phosphomimetic substitution S59D; Made by site-directed mutagenesis; also called αB-S59D; αBS59D; source: E. coli BL21(DE3)pLysS, purified (Q-Sepharose, Superdex and Superose 6 size exclusion, ammonium sulphate)) MDIAIHHPWIRRPFFPFHSPSRLFDQFFGEHLLESDLFPTSTSLSPFYLRPPSFLRAPDWFDTGLSEMRLEKDRFSVNLDVKHFSPEELKVKVLGDVIEVHGKHEERQDEHGFISREFHRKYRIPADVDPLTITSSLSSDGVLTVNGPRKQVSGPERTIPITREEKPAVTAAPKK	–	1100	500	–	binds	–	–
αB-crystallin S59A (natural protein, human, UniProt P02511 1-175, looked up, αB-crystallin, human, with the substitution S59A; Made by site-directed mutagenesis; called the control mutant; also called αB-S59A; source: E. coli BL21(DE3)pLysS, purified (Q-Sepharose, Superdex and Superose 6 size exclusion, ammonium sulphate)) MDIAIHHPWIRRPFFPFHSPSRLFDQFFGEHLLESDLFPTSTSLSPFYLRPPSFLRAPAWFDTGLSEMRLEKDRFSVNLDVKHFSPEELKVKVLGDVIEVHGKHEERQDEHGFISREFHRKYRIPADVDPLTITSSLSSDGVLTVNGPRKQVSGPERTIPITREEKPAVTAAPKK	stronger; reference 579	13700	1400	84	binds	–	–
